Assay results reported in article PMC8149476 (Cell Reports Medicine, 2021).

Experiments:
[1] = molecular target: NOTCH3 endogenous on MDA-MB-468 cells (human (endogenous in MDA-MB-468), UniProt Q9UM47); assay: immunostaining of cells or tissue
[2] = molecular target: mouse NOTCH3 (mN3) expressed on U2OS cells (U2OS-mN3) (mouse, UniProt Q61982); assay: ELISA
[3] = molecular target: human NOTCH1 receptor expressed on U2OS cells (U2OS-hN1) (Homo sapiens, UniProt P46531); assay: ELISA
[4] = molecular target: mouse NOTCH1 receptor expressed on U2OS cells (U2OS-mN1) (Mus musculus, UniProt Q01705); assay: ELISA
Chain of mouse NOTCH1 receptor expressed on U2OS cells (U2OS-mN1) (Q01705 19-2531): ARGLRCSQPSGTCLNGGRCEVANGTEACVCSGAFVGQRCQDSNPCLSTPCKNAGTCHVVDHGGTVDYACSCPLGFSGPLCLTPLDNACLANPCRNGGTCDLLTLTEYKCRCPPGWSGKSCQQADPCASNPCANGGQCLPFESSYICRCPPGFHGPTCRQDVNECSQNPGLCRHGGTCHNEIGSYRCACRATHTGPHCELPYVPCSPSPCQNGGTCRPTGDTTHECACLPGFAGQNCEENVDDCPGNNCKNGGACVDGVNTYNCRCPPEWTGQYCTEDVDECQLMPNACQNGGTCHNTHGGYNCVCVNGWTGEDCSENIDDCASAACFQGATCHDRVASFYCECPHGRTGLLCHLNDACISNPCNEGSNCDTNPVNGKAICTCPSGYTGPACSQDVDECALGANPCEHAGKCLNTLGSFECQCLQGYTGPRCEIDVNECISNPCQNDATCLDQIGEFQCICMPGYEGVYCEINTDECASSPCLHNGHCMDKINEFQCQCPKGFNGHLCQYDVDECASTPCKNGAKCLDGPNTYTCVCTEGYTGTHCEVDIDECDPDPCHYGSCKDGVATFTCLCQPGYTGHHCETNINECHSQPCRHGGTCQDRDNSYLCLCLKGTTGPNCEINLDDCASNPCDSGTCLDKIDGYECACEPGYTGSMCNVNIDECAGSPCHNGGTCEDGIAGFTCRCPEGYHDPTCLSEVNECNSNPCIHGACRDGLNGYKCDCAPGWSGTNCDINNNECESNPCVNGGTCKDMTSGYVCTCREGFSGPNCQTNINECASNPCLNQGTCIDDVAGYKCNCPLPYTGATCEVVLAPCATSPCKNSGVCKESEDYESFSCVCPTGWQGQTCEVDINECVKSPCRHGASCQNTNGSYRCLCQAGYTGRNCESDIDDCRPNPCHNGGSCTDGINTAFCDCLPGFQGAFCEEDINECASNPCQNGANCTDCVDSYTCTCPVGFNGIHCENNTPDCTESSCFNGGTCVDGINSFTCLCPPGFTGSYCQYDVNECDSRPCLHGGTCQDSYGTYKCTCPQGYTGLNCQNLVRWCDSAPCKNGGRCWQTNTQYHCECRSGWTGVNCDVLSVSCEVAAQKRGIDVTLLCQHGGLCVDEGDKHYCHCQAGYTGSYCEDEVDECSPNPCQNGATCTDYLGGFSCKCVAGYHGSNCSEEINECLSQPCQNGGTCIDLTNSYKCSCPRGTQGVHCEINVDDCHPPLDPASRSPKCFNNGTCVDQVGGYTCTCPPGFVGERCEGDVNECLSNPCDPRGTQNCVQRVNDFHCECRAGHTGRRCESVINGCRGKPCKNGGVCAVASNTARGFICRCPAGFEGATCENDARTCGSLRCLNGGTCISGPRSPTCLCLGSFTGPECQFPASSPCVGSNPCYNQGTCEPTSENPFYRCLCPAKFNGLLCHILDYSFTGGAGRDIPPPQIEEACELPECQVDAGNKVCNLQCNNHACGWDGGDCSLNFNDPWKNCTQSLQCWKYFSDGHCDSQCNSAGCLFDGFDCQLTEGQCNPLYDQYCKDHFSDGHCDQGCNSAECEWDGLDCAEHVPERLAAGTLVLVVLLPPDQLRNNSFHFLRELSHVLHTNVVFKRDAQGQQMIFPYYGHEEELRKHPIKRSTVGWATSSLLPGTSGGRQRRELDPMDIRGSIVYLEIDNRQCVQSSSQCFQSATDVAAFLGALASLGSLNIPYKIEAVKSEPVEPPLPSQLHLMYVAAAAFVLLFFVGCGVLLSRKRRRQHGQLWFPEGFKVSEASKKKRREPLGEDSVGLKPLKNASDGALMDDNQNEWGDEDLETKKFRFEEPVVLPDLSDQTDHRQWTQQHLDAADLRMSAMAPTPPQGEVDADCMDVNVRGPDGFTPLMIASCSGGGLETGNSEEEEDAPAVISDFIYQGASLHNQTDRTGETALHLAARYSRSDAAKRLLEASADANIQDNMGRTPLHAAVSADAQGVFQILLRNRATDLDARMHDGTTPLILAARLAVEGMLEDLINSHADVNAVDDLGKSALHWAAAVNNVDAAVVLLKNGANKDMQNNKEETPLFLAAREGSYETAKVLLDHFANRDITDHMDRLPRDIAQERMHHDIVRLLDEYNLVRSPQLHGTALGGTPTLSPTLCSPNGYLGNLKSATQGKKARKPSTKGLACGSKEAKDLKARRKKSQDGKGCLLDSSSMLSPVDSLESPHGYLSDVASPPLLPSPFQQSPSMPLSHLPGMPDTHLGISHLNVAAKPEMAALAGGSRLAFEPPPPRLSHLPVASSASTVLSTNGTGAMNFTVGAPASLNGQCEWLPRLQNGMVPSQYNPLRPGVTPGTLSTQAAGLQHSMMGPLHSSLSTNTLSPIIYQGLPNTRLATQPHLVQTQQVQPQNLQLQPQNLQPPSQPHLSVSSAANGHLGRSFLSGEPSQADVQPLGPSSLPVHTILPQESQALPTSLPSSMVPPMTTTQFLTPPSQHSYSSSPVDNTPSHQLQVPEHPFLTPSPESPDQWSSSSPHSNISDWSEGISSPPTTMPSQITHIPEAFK

[5] = molecular target: human NOTCH3 receptor expressed on U2OS cells (U2OS-hN3) (human, UniProt Q9UM47); assay: ELISA
Chain of human NOTCH3 receptor expressed on U2OS cells (U2OS-hN3) (Q9UM47 40-2321): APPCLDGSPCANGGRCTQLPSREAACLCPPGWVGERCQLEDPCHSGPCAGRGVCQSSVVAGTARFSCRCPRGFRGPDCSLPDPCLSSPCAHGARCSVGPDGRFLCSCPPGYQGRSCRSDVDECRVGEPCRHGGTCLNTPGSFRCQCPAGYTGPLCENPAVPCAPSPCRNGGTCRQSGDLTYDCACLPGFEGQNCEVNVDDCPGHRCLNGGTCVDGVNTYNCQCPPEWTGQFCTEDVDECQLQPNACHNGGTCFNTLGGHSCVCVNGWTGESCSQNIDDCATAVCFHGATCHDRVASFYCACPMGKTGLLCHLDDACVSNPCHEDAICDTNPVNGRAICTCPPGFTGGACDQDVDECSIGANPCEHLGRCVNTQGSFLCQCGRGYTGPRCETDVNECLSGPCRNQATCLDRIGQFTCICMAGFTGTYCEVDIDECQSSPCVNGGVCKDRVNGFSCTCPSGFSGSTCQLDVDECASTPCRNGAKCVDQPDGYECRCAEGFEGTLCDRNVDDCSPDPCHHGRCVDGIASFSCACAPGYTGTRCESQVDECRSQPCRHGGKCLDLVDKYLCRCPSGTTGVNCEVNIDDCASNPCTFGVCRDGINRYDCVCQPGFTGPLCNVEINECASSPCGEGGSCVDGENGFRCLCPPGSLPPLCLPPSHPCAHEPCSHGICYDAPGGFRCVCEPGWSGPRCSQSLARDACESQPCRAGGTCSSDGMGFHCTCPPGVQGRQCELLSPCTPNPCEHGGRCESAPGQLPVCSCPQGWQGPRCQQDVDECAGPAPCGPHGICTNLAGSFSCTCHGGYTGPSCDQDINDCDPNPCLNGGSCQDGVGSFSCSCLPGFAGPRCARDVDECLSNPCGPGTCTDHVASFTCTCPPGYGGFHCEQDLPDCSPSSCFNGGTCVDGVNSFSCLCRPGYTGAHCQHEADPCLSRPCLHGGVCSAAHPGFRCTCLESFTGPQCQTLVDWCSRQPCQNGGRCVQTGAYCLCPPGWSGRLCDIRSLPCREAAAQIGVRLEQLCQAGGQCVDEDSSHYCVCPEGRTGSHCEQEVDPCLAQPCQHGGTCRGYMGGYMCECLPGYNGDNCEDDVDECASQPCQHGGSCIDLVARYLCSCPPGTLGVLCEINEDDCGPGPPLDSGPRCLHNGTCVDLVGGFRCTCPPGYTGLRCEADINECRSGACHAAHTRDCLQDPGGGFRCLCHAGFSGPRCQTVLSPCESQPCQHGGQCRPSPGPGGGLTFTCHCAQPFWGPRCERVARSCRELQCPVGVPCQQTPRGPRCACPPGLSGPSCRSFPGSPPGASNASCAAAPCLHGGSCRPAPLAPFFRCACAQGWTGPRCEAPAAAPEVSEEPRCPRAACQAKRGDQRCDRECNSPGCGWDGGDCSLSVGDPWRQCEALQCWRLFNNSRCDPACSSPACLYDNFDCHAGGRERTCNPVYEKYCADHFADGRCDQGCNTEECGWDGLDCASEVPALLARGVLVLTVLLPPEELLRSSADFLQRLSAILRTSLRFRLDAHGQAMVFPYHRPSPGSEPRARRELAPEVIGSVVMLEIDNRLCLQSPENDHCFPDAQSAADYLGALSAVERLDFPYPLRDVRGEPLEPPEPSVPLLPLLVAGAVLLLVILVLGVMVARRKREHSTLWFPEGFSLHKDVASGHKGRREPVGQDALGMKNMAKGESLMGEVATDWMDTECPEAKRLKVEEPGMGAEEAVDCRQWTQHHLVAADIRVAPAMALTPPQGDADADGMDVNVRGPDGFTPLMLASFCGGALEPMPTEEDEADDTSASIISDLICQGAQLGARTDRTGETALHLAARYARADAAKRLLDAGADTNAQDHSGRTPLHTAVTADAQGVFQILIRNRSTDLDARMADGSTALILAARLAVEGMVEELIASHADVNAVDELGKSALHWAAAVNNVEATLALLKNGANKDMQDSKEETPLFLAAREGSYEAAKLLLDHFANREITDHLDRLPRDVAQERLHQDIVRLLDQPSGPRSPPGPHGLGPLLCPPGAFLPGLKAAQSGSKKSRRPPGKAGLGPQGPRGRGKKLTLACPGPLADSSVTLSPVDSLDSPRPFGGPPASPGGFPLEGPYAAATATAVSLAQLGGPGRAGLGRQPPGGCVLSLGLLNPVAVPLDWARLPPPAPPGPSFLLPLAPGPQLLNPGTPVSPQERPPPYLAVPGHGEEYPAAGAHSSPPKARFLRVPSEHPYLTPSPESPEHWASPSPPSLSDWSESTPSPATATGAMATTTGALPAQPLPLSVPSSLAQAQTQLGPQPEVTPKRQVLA

[6] = molecular target: human NOTCH3 NRR_AviHis recombinant protein (Homo sapiens, UniProt Q9UM47); assay: SPR

Chain of NOTCH3 endogenous on MDA-MB-468 cells (Q9UM47 40-2321): as above

Row | Binder | binding result [1] | binding result [2] | binding result [3] | binding result [4] | binding result [5] | binding result [6]
1 | anti-NOTCH3 inhibitory (anti-N3(i)) mAb clone 75 (antibody, V domains shown) VH: EVQLVESGGGLVQPGGSLRLSCAASGYAFTDYWMTWVRQAPGKGLEWVAEISPNSGGTNFNEKFKGRFTISVDNAKNSLYLQMNSLRAEDTAVYYCARGEIRYNWFAYWGQGTLVTVSS VL: DIQMTQSPSSLSASVGDRVTITCKASQNVGNNIAWYQQKPGKAPKLLIYYASNRYTGVPSRFSGSGYGTDFTLTISSLQPEDFATYYCQRLYNSPFTFGGGTKVEIK | binds | no binding | no binding | no binding | binds | binds
2 | Anti-N3(i)-vc0101 ADC (antibody, V domains shown) VH: EVQLVESGGGLVQPGGSLRLSCAASGYAFTDYWMTWVRQAPGKGLEWVAEISPNSGGTNFNEKFKGRFTISVDNAKNSLYLQMNSLRAEDTAVYYCARGEIRYNWFAYWGQGTLVTVSS VL: DIQMTQSPSSLSASVGDRVTITCKASQNVGNNIAWYQQKPGKAPKLLIYYASNRYTGVPSRFSGSGYGTDFTLTISSLQPEDFATYYCQRLYNSPFTFGGGTKVEIK | – | – | – | – | binds | –
